Test results: the DeepSol protein solubility set

Assay: soluble on expression in E. coli; label from the status in PepcDB or PDB records

Q: Which “soluble on expression in E. coli” value does the source give for “MDLIAPEDVVVTLSHAGYAKRQPVSAYRAQRRGGRGRSAASTKEEDFIDQLWLVNTHDTLLTFTSSGKVFWLPVHQLPEAGSNARGRPIINWIPLESGERVQAVLPVREYADNRYVFMATRNGTVKKTPLSEFAFRLARGKIAINLDEGDALVGVALTDGDRDVLLFASNGKTVRFGESTVRSMGRTATGVRGIRLAKGEEVVSLIVSERAGGVEDEVEDESAEEVVETTDGAEPAVIDVADNGDVAYILTATENGYGKRTPLAEYPRKGRGTQGVIGIQTTERNGKLVRAVLLGSTDEVMLISDGGTLVRTRGSEISRVGRNTQGVTLIRLSKGEKLQAVERLDASLEEPEDVVDEAVAITSDAPPAEG” here?
A: soluble

Q: Which “soluble on expression in E. coli” value does the source give for “MDLVKDVKRELSFSELKGKRVSIDGYNALYQFLAAIRQPDGTPLMDSQGRVTSHLSGLFYRTINILEEGVIPIYVFDGKPPEQKSEELERRRKAKEEAERKLERAKSEGKIEELRKYSQAILRLSNIMVEESKKLLRAMGIPIVQAPSEGEAEAAYLNKLGLSWAAASQDYDAILFGAKRLVRNLTITGKRKLPNKDVYVEIKPELIETEILLKKLGITREQLIDIGILIGTDYNPDGIRGIGPERALKIIKKYGKIEKAMEYGEISKKDINFNIDEIRGLFLNPQVVKPEEALDLNEPNGEDIINILVYEHNFSEERVKNGIERLTKAIKEAKGASRQTGLDRWF” here?
A: soluble

Q: For “MDMKHTLLEALGIEIVENTAERCVAVMPVDHRTVQPFGYLHGGASVALAETAARPGAQNLIDHTTQACVGLEINANHLKSVKEGTVKAIAEPVHIGRTTIVYHIHIYDEQERLICISRCTLAVIKKLEHHHHHH”, which “soluble on expression in E. coli” value is on record?
A: soluble

Q: For “MDMYSMKISEGVERIDGVTANSYLLTLDGKNILIDTGTAGGGKKIIDYFNKNGTKPDYVIVTHHHADHVGGLKEISERFNPEIYVPDLEMKIIRGEEDPPKPRSFFGRMITGMLKFEPVKDVKPVSKASIPGIEEMATPGHTIGSTSYIVEDLHILFSGDAAVESGGELKINKSFSYEINSAERSLEIIKGMKGYLVLPGHGDKVQLLEHHHHHH”, which “soluble on expression in E. coli” value is on record?
A: soluble

Q: With “MDNPCPTCGQELEWTGQYHCSACTVDYCKVGFCPECGSELEKLQACGAANYFCNQCNELKSKSKIRFVFQPLNGNSQLEHHHHHH” as the sequence, how does the “soluble on expression in E. coli” value read?
A: soluble

Q: With “MDNPEPARIVRLMEHRADIAIVGGGLNGPALALALAQSGQSVVLVDALPDPLRTDAEFDGRAYALALASQRLLAAVGVWDHVAEAAQPMLEIKVSDGHAGAGPSPFFLHFDHAEIEEGPMGYMVEDRYLRRALLAAMEDAPRITRLNGAAVTAQQTDGTGVVLTLADGSHLRAGLVVGCDGRKSGTATRAGIKRTGWDYGQTALVCAIAHERPHHGIAHQFFMPPGPLAILPLPGNRSSIVWSERTEAAARINALPEAEYLEILRPRFGDFLGEIRLEGARFTYPLNLTVANAFVAERLALVGDAAHGMHPIAGQGLNAGLRDVGALAEVLILAARRGEDIGAAPVLERYQQWRRFDTATLALATDAFNRLFSNDNPLLRLGRDVGMGVIGAFPGLRRGFVREATGLTGDLPKLMQGRAILEHHHHHH” as the sequence, how does the “soluble on expression in E. coli” value read?
A: not soluble

Q: With “MDPARECEGKGACELKSNKRFADKIMPHLLNLYGSSAKANDFDMYAPNASFEDPLTHAQGVKQIKSAFYSLPKVFGESKIVEYHIQESETSPGKKEILIDNKQHYKIMGRNIDMISLIKLYVEDGKIVRHEDWWDKKPLRNRDTVSFPLVGRVMEMGRRGLMLATHAMMGFGKDPDSQ” as the sequence, how does the “soluble on expression in E. coli” value read?
A: soluble

Q: For “MDQNIPCQFFSFENTALAVRHRKGHCFPGLVWLSGYQSDMLGSKAMLVDNFAQKNDLSCLRFDYSGHGESEGDFFQGTISRWVKESLAIFETYCEGPQILIGSSMGGWIALKLAMMLAQKNKRLAGMVLVAPAPDFTQTLVEPKLGLEEWKILEEKGYIERPAVGDEEPMPFTKGLIEDGRDNCVMKGCLDIGCPIHILQGMEDDKIPYQHTLTLMNHLPLHDVTLTLVRDADHRFSRPQDLECLETVLSILIDRINAG”, which “soluble on expression in E. coli” value is on record?
A: not soluble

Q: Which “soluble on expression in E. coli” value does the source give for “MDREQVVALQHQRFAAKKYDPNRRISQKDWEALVEVGRLAPSSIGLEPWKMLLLKNERMKEDLKPMAWGALFGLEGASHFVIYLARKGVTYDSDYVKKVMHEVKKRDYDTNSRFAQIIKNFQENDMKLNSERSLFDWASKQTYIQMANMMMAAAMLGIDSCPIEGYDQEKVEAYLEEKGYLNTAEFGVSVMACFGYRNQEITPKTRWKTEVIYEVIE” here?
A: soluble

Q: Which “soluble on expression in E. coli” value does the source give for “MDRKFNSDEQWYISPLLNLATVKEEMLEVRELGEVIIDRTMDDFDSKTEKEHEMEMWKNSLSYIQGVTEEESLEAIEEVSNLDMFLEGSSDVQTRRFEDMKGDRKFLERSPLVSHKHVISREKTMKTSRQRKSAYVTSLKYDKYMLNAGANTSLFHPQCSILEKCEDDIVLIVDALMPYNRELLSSELRSSRLLKPMTKFLVRGDTLLSDLRQKFVCQSDTIVPLENGLELDPPNLDNATAVRFPSSFIFVHDTFYVDMPPNAIDISHPIRNFMLHREIYDPVEACSMEGVRIIDLKLRLGQPYIFQHSGNCEHLLVFHDLRLLHESDPWGIDKYPFTLYEKGNEKKCDICKKGHVEFVVERHELLPNTYTHFCRTCFQEFNYVHGVKTHSFIAWPYTELQTGEQRGWPFGDFEQEDD” here?
A: not soluble

Q: Which “soluble on expression in E. coli” value does the source give for “MDRKIREQIIAIYSNLQHKQDLTQFAHCLTTKADDNCEDFFNLGLQFQNNQLTALGFNGEGCIISTIASELTLSALEGKTIKEAIVLLEQFMEAVQTGSLSTPLPQALQLLWDFQIDQKRLNCLLLTPQNLLQWLKDFSH” here?
A: soluble

Q: Which “soluble on expression in E. coli” value does the source give for “MDRKVAREFRHKVDFLIENDAEKDYLYDVLRMYHQTMDVAVLVGDLKLVINEPSRLPLFDAIRPLIPLKHQVEYDQLTPRRSRKLKEVRLDRLHPEGLGLSVRGGLEFGCGLFISHLIKGGQADSVGLQVGDEIVRINGYSISSCTHEEVINLIRTEKTVSIKVRHIGLIPVKSSPDEPLTWQYVDQFVSES” here?
A: soluble

Q: With “MDSAFVDRAWDKWVTTGNVGSSDFEKKMKNPERKNKMLLFGDLIVGICSGPSRLLSTIAKQEGIDIYPVDLKQFIDFMRCGNLPTETFVLGSNQCKNIITSIHENWFAARCLNTSQPAGEGAIVMQTAVYVLVALYDGSIGSASQAMAAADQFASQLSRKNF” as the sequence, how does the “soluble on expression in E. coli” value read?
A: soluble

Q: For “MDSGINNISRFRIDHSFHKLHYAMHSAHSHTYYELFYMMHGNCTISIDNRLFTLSEGNIIFIPANSVHRTSYIGELVPERTYIEFSKDYIETISQTLGKNWAEHNLWGHILYIEKEKREKIDFLFREIQKEYDIVDGYSDCCIRQLFQYLIINLIRLDRNTKDIKEFITNSDNKINQNMIIAAKYIAENFKNDITLKDVASHLNLNPSYFSSKFKAFNNIGFAEYLRNIRVNHAEWYLIETDLSLSDIASECGFCNSNYFGDTFKLVNGISPSEFRKNNKPKKAEN”, which “soluble on expression in E. coli” value is on record?
A: not soluble

Q: For “MDSIPLEKPHVVSLIGGFGYREPIFRKVLTTAMLDPGINYTLISGPSLDPSKLGGVPKNVRILNFVEDTYPYIKSSDAVIAPGGHSTIMEALSFGVPILSFPDEGHSEQESNAAVVEEEGYGRMLSYSTPPEVILECIREVIEDEAYRNKVERLQRLSGELEHHHHHH”, which “soluble on expression in E. coli” value is on record?
A: soluble

Q: For “MDSLKGMAIFATVVDKGSMAAAAQSLGMTPSAVSQQIRKLESRAQVTLLHRTTRRLTLTEAGEAFYRSCAQMLAIAEEAERRLGEWRDAPVGELRLAAPVGFSGTLITQALKPLLENHRQLRLQLFFQDERIDLVAERIDLAIRVGNLADSSLVARHLGDWSSVLCAAPAYLRQRAPINRPEQLTEVDWISLNTSNHLNHLTLSGPGGEVCKLRLEPRVAANGMLAVRQFTLDGLGVSYQPLPEVRDALNDGRLQQLLPEWRIPGLGIYAVTPRREAQPAKVKVAIEALRRAFATDGDERWS”, which “soluble on expression in E. coli” value is on record?
A: not soluble

Q: Which “soluble on expression in E. coli” value does the source give for “MDSTMTNYMGQENLPPALKLINDKSYQYSTHKHNIETSNDGTLHSYTIVLSREPLESPTSYNKYQKNVEPVQKENQKPKDLNKMTAGPHIAVKNSSGLVSQISSTTSSERKRRTLARPSSSSESDLKVGNIQQSNQYFTLPSVMKPSALSTEDPKKVIVQSNTSSSSMSDASSKKSLPTYTYLSGHTTGSARYVTMVNVKFLLLHCDVLQRRAQSMFTDEFPSDCRLEEVVINFHQLCCRQLLDQNFNPRLSYCIGELNYSDSKPVSANDMSKTLAQLATTQSIAQLSIIVDVTEKNMKLK” here?
A: not soluble

Q: For “MDTDIRDFIIEDDLFDPFMDENEDDDRAEIDEEPETPLIGEPLDEWKKPVEDWRPAQVRIKDLFEEMPGQKRMMLKIIDYCREERTGEEMDVFTNDLKQYCYSVYSPVVFRELLEEAGAIEYIKPDEPEGSQDAAQSEERAQAGGELPEEAVSPHRGDVYGTLPVDDESTLVPIDGADIVHESYIEGDEEIQMDFLEITPCEPGTWKATEAGLEAVDSMDDLDGTKELLGKEPKYLDIYHQILDYCQDEYGRSSKEIDKLVNDSPLLEEPRRYSGYFVSRLEKQGALEWRNGWFVTEVGKKIIEEAAAHV”, which “soluble on expression in E. coli” value is on record?
A: not soluble

Q: With “MDTIIYYSEMEGISLEHLKRSSGYDMRSNHFHNEYEIYFLTEGERLFFFNNRAYQVKKGSLILVDTNLIHMTHAPEDDTTGYTRIILYIDKFKMQQFDEKFPHLNLVPFFREHYGVYNLTQKQQEKFLHMYEVLKTEFSNRSRSYKALIEMEIIHYFIDFIRDNPELTPIKDETAIHKSSKYQ” as the sequence, how does the “soluble on expression in E. coli” value read?
A: not soluble

Q: For “MDTIWDADLQSAALKAEHHRLKTERLSLGYEGKSVCDALDLAIPHGKFSVIVGPNGCGKSTLLKSLCRLLKPLAGQVLLDGQNIHQLPTKVVAKQLGLLPQSALTPEGIKVVDLVSRGRYPHQGLFRQWSRVDERAVEEAMRATHVHELAQHSVDQLSGGQRQRVWVAMALAQQTPYLLLDEPTTYLDIAHQIELLDLFWRLNRQQGHTLVAVLHDLNQACRYADHLIVLQEGKIVAQGDPHSLVTPALVKQVFGIDCVVMPDPISCTPLIIPYSLKRG”, which “soluble on expression in E. coli” value is on record?
A: not soluble

Q: With “MDTLPECPITNTASLLPHSGRMVLIDRITRYGDDFVEAGAQVSPNHILLLDDKLPYTAFIELMAQAVGAYAGIQARKNARSVRLGFLLGTRKLEIFAQSVPIGTHLLATAHMSIQDAGGMGVFDCELRWTDAPETSSETLPSDGILARASLNVYSPEHPAGTTDAVLEHHHHHH” as the sequence, how does the “soluble on expression in E. coli” value read?
A: not soluble

Q: With “MDTNSLLSAGSDMAKAANLSDADIIQLSDAACKQSDQESKIAPAGNKYSVRLTKLMRGFGNMTLNGQKVNYKVYMTEDVNAWAMGNGCVRVYTGLMDLMNDDELRGVIGHEMGHVALGHTKKAMQTAYAVSAARQAAGAAGNSVVASLSASQLGEMTEKFINAQFSQSQETAADDFSFDLLTEKKMNRKGLVTAFQKLAELDGGESSMFSSHPSSPDRAARMEKRLQAGKLEHHHHHH” as the sequence, how does the “soluble on expression in E. coli” value read?
A: soluble
